{"source": "patent US20260294251A1", "about": "“Method for Medical Imaging” (Integro Theranositcs, LLC, priority 2023, published 2026)", "key": {"[1]": {"assay": "Single IV dose toxicity study in rats", "type": "in vivo, rat", "settings": "rat, in vivo, iv; for selectivity ratio: starting dose 0.025 mg/kg, read-out: safety margin", "from_the_text": "(§1) Therefore, the changes were considered non-adverse."}, "[2]": {"test_system": "rats", "assay": "Single IV dose toxicity study in rats", "type": "in vivo, rat", "from_the_text": "as §1"}, "[3]": {"test_system": "tumors", "settings": "mouse, in vivo, iv"}, "[4]": {"test_system": "male rats", "assay": "In-vivo safety pharmacology (functional observation battery) in male rats", "design": "species or system rat", "from_the_text": "(§2) Results from safety pharmacology studies further support the potential safety of L301 and LS301-IT."}, "[5]": {"assay": "Toxicokinetics at the NOAEL in the rat toxicity study", "type": "in vivo", "settings": "plasma, iv, 20 mg/kg, Day 1, at NOAEL 20 mg/kg; for AUC(0-t) at 48 h: read-out: AUC0-48h; for C0: read-out: Co", "procedure": "In this study, the NOAEL was considered 20 mg/kg. The corresponding AUC0-48h and Co of LS301 at the established NOAEL on Day 1 were 14200 h*ng/ml and 69900 ng/mL for males and 14900 h*ng/mL and 98800 ng/mL for females, respectively. Therefore, the NOAEL of 20 mg/kg is equivalent to a 3.226 mg/kg human dose."}, "[6]": {"test_system": "cardiovascular function", "assay": "Cardiovascular safety pharmacology after single IV administration", "type": "in vivo, rat", "settings": "rats, single IV up to 20 mg/kg, up to 24 hours", "from_the_text": "as §2"}, "[7]": {"assay": "Pharmacokinetics in the rat after single IV delivery", "quoted_text": "(§4) Appropriate bioanalytical methods were developed and validated to measure LS301 concentrations in rat plasma (LC-MS/MS) and various dosing formulations (HPLC-UV, UPLC) per good laboratory practice (GLP) regulations."}, "[8]": {"test_system": "tumors", "assay": "Proof of concept imaging and biodistribution in mice after single IV delivery"}, "[9]": {"test_system": "Salmonella typhimurium (TA100, TA1535, TA98, TA1537) and Escherichia coli (WP2uvrA)", "assay": "GLP bacterial mutagenicity (Ames) test", "type": "cell-based", "settings": "doses up to 1000 μg/plate; previous study", "procedure": "(§3) LS301 was negative for inducing structural/numerical chromosomal aberrations in Wolff-Bloom-Litton Chinese hamster ovary (CHO-WBL) cells with and without an S9 activation system. In a previous study, the potential for LS301 to cause genotoxicity was evaluated in a GLP bacterial mutagenicity (Ames) test in 4 strains of Salmonella typhimurium (TA100, TA1535, TA98, TA1537) and Escherichia coli (WP2uvrA) at doses up to 1000 μg/plate. The results were negative for LS301 mutagenicity."}, "[10]": {"test_system": "Wolff-Bloom-Litton Chinese hamster ovary (CHO-WBL) cells", "assay": "Chromosomal aberration test in CHO-WBL cells", "type": "cell-based", "settings": "with and without an S9 activation system", "procedure": "as §3"}, "[11]": {"test_system": "respiratory system functional parameters", "assay": "Respiratory safety pharmacology after single IV administration", "type": "in vivo, Sprague-Dawley rats", "settings": "single IV up to 20 mg/kg, up to 24 hours", "from_the_text": "as §2"}, "[12]": {"biological_target": "human Ether-à-go-go related gene (hERG) (Homo sapiens, UniProt Q12809)", "sequence (Q12809 whole entry)": "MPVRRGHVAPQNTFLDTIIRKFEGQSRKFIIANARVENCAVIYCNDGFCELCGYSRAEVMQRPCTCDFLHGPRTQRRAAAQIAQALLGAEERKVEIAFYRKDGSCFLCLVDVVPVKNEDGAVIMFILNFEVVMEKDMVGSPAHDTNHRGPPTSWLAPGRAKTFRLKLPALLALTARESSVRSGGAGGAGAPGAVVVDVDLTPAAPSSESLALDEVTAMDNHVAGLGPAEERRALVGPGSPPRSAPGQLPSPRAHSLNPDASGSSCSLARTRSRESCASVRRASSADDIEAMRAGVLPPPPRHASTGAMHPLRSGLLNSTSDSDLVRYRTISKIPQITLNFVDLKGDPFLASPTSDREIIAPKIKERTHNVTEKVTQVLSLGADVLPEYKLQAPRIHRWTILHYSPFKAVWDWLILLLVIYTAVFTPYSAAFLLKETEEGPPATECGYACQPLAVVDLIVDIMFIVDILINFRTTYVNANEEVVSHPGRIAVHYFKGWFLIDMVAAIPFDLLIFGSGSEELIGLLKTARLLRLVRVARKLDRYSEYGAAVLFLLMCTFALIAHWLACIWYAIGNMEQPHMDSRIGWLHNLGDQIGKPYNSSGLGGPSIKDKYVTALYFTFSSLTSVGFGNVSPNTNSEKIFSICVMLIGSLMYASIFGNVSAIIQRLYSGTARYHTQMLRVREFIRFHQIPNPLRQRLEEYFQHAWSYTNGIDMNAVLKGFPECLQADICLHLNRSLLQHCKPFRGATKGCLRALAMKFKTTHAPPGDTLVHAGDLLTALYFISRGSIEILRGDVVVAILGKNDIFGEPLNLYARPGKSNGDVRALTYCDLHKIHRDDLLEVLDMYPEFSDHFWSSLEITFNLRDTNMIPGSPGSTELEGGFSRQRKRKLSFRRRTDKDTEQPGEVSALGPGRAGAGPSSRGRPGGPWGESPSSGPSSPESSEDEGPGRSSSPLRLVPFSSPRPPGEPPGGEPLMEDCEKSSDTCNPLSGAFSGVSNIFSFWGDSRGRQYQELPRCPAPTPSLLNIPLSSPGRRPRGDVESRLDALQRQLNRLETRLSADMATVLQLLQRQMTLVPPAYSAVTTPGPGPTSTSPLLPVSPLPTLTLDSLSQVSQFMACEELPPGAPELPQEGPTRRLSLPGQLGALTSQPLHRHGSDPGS", "assay": "human Ether-à-go-go related gene (hERG) assay", "type": "cell-based", "from_the_text": "as §2"}, "[13]": {"settings": "rat, in vivo, iv", "quoted_text": "as §4"}, "[14]": {"test_system": "mouse breast cancer model", "settings": "in vivo, iv"}}, "note": "Like-named read-outs stand apart in the source and are kept apart here. Positions of bridges follow the written chain, without caps; N, C: chain ends. Non-standard residues stand in square brackets, D forms with d. Residues, ends and D or L forms follow the SMILES beside them. *: point of attachment. X1 = CC1(C)C(/C=C/C=C/C=C/C=C2/N(CCC(=O)*)c3ccc4ccccc4c3C2(C)C)=[N+](CCC(=O)[O-])c2ccc3ccccc3c21", "data": [{"smiles": "CC1(C)C(/C=C/C=C/C=C/C=C2/N(CCC(=O)N[C@@H]3CSSC[C@@H](C(=O)N[C@@H](CCCCN)C(=O)O)NC(=O)[C@@H]4CCCN4C(=O)[C@H](CO)NC(=O)[C@H](CC(=O)O)NC(=O)[C@H](CCCNC(=N)N)NC(=O)CNC3=O)c3ccc4ccccc4c3C2(C)C)=[N+](CCC(=O)[O-])c2ccc3ccccc3c21", "note": "[LS301, cypate-cyclo(Cys-Gly-Arg-Asp-Ser-Pro-Cys)-Lys-OH] (X1-[dC]GRDSPCK-OH; disulfide 1-7)", "values": [{"measurement": "NOAEL", "setting": "[1]; correction factor of 0.88, read-out: corrected NOAEL", "value": 17.6, "unit": "mg/kg"}, {"measurement": "NOAEL", "setting": "[1]; single IV, read-out: NOAEL", "value": 20, "unit": "mg/kg"}, {"measurement": "selectivity ratio", "setting": "[1]; NOAEL 20 mg/kg", "value": 129}, {"measurement": "selectivity ratio", "setting": "[1]; corrected NOAEL 17.6 mg/kg", "value": 114}, {"measurement": "mortalities or changes in body weight, food consumption, ophthalmology, hematology, coagulation, and urinalysis", "setting": "[2]; rats, up to 20 mg/kg LS301", "value": "no mortalities or test article-related changes"}, {"measurement": "tolerability", "setting": "[2]; rats, up to 20 mg/kg LS301", "value": "tolerated LS301 and LS301-IT well"}, {"measurement": "resolution of discoloration", "setting": "[2]; ≥10 mg/kg, rat toxicity study", "value": "resolved on Day 15"}, {"measurement": "tumor uptake (biodistribution)", "setting": "[3]", "value": "high uptake in tumors"}, {"measurement": "mortality", "setting": "[4]; male rats, up to 20 mg/kg", "value": "No mortalities"}, {"measurement": "functional observation battery (FOB) parameters", "setting": "[4]; male rats, up to 20 mg/kg, motor activity, behavior, coordination, reflexes, body temperature", "value": "no effects"}, {"measurement": "discoloration (green)", "setting": "[4]; male rats, ≥10 mg/kg", "value": "transient LS301-related discoloration (green)"}, {"measurement": "effects on central nervous, cardiovascular, and respiratory functions", "setting": "[4]; rats, doses up to 20 mg/kg", "value": "no significant effects"}, {"measurement": "tolerability", "setting": "[4]; rats, doses up to 20 mg/kg", "value": "Rats tolerated LS301 well"}, {"measurement": "AUC(0-t) at 48 h", "setting": "[5]; females", "value": 14.9, "unit": "µg·h/mL"}, {"measurement": "C0", "setting": "[5]; females", "value": 98.8, "unit": "µg/mL"}, {"measurement": "AUC(0-t) at 48 h", "setting": "[5]; males", "value": 14.2, "unit": "µg·h/mL"}, {"measurement": "C0", "setting": "[5]; males", "value": 69.9, "unit": "µg/mL"}, {"measurement": "cardiovascular function", "setting": "[6]", "value": "did not affect cardiovascular function"}, {"measurement": "half-life", "setting": "[7]; rat", "value": "fewer than five hours"}, {"measurement": "systemic exposure versus dose", "setting": "[7]; rat", "value": "increased proportionally with dose"}, {"measurement": "difference in systemic exposure between male and female", "setting": "[7]; rats", "value": "No differences were seen"}, {"measurement": "accumulation in other tissues", "setting": "[8]", "value": "accumulated in other tissues, especially the excretory organs of the liver and kidneys"}, {"measurement": "binding and accumulation in tumors", "setting": "[8]", "value": "could bind and accumulate in tumors"}, {"measurement": "tumor-to-background ratio", "setting": "[8]; four hours post-injection", "value": "clear tumor-to-background ratio"}, {"measurement": "mutagenicity (Ames)", "setting": "[9]", "value": "negative"}, {"measurement": "structural/numerical chromosomal aberrations", "setting": "[10]", "value": "negative"}, {"measurement": "respiratory system functional parameters (tidal volume, respiratory rate, derived minute volume)", "setting": "[11]", "value": "did not affect respiratory system functional parameters"}, {"measurement": "IC50", "setting": "[12]", "value": "> 9.98", "unit": "µM"}, {"measurement": "tissue distribution", "setting": "[13]", "value": "widely distributed to tissues"}, {"measurement": "volume of distribution", "setting": "[13]", "value": "greater than the total volume of body water in humans"}, {"measurement": "tissue distribution", "setting": "[14]", "value": "distributes and accumulates in tumor and non-tumor tissues, especially the liver and kidneys"}]}]}
